In patent US20220040304A1, “A COMPOSITION FOR CANCER CELL DEATH AND ITS USE” (Industry-University Cooperation Foundation Hanyang …, priority 2018, published 2022):

B1: RLuc8.6-KR-LP: fusion protein of RLuc8.6, KillerRed and lead peptide WLEAAYQRFL, 71 kDa (protein)
chain: MRGSHHHHHHGMASMTGGQQMGRDLYDDDDKDPMASKVYDPEQRKRMITGPQWWARCKQMNVLDSFINYYDSEKHAENAVIFLHGNATSSYLWRHVVPHIEPVARCIIPDLIGMGKSGKSGNGSYRLLDHYKYLTAWFELLNLPKKIIFVGHDWGSALAFHYAYEHQDRIKAIVHMESVVDVIESWMGWPDIEEELALIKSEEGEKMVLENNFFVETLLPSKIMRKLEPEEFAAYLEPFKEKGEVRRPTLSWPREIPLVKGGKPDVVQIVRNYNAYLRASDDLPKLFIESDPGFFYNAIVEGAKKFPNTEFVKVKGLHFLQEDAPDEMGKYIKSFVERVLKNEQEFGGGMLCCMRRTKQVEKNDEDQKISEGGPALFQSDMTFKIFIDGEVNGQKFTIVADGSSKFPHGDFNVHAVCETGKLPMSWKPICHLIQYGEPFFARYPDGISHFAQECFPEGLSIDRTVRFENDGTMTSHHTYELDDTCVVSRITVNCDGFQPDGPIMRDQLVDILPNETHMFPHGPNAVRQLAFIGFTTADGGLMMGHFDSKMTFNGSRAIEIPGPHFVTIITKQMRDTSDKRDHVCQREVAYAHSVPRITSAIGSDEDGGGWLEAAYQRFL
modifications: pRSET-RLuc8.6-KillerRed-Lead peptide
B2: RLuc8.6-KR: fusion protein of RLuc8.6 and KillerRed without lead peptide, 69 kDa (protein)
chain: MRGSHHHHHHGMASMTGGQQMGRDLYDDDDKDPMASKVYDPEQRKRMITGPQWWARCKQMNVLDSFINYYDSEKHAENAVIFLHGNATSSYLWRHVVPHIEPVARCIIPDLIGMGKSGKSGNGSYRLLDHYKYLTAWFELLNLPKKIIFVGHDWGSALAFHYAYEHQDRIKAIVHMESVVDVIESWMGWPDIEEELALIKSEEGEKMVLENNFFVETLLPSKIMRKLEPEEFAAYLEPFKEKGEVRRPTLSWPREIPLVKGGKPDVVQIVRNYNAYLRASDDLPKLFIESDPGFFYNAIVEGAKKFPNTEFVKVKGLHFLQEDAPDEMGKYIKSFVERVLKNEQEFGGGMLCCMRRTKQVEKNDEDQKISEGGPALFQSDMTFKIFIDGEVNGQKFTIVADGSSKFPHGDFNVHAVCETGKLPMSWKPICHLIQYGEPFFARYPDGISHFAQECFPEGLSIDRTVRFENDGTMTSHHTYELDDTCVVSRITVNCDGFQPDGPIMRDQLVDILPNETHMFPHGPNAVRQLAFIGFTTADGGLMMGHFDSKMTFNGSRAIEIPGPHFVTIITKQMRDTSDKRDHVCQREVAYAHSVPRITSAIGSDED
modifications: pRSET-RLuc8.6-KillerRed

Legend:
Type in all cases: cell-based, human
[1] = test system: MCF-7; assay: Cell death with Co-h substrate by cell type (SYTOX Green or EthD-1/DAPI); conditions: MCF-7, protein 10 μM, Co-h 150 μM for 5 minutes
Method: (§1) The cells were seeded at 5×10^5 cells/mL in 96-well plates (SPL Cell Culture Plate, 96 well (SPL, Cat #30096)), and cultured at 37° C. for 24 hours (overnight). After the culture for 24 hours, the cells were washed with FBS & phenol red-free media, and 100 μL of FBS & phenol red-free media containing a purified protein (final concentration: 10 μM) was added, followed by reaction at 37° C. for 24 hours.
(§2) Subsequently, the cells were washed with FBS & phenol red-free media, and 100 μL of FBS & phenol red-free media was added. 100 μL of FBS & Phenol red-free media (RPMI) containing a Co-h substrate solution (final concentration: 150 μM) was added, followed by reaction at 37° C. for 5 minutes.
(§3) After the reaction, 50 μL of SYTOX Green (final concentration: 261 nM) or 90 μL of ethidium homodimer (EthD-1) (final concentration 1×), which stains DNA of dead cells, was added, followed by reaction at 37° C. for 30 minutes. 10 μL of DAPI staining DNA of live cells was added, followed by reaction for 5 minutes. Cell death was confirmed by observing KillerRed, SYTOX Green, MiniSOG, EthD-1 and DAPI fluorescence using a confocal microscope.

[2] = test system: MDA-MB-435; assay: as above; conditions: MDA-MB-435, protein 10 μM, Co-h 150 μM for 5 minutes
Method: as §1, §2, §3

[3] = test system: MDA-MB-231; assay: as above; conditions: MDA-MB-231, protein 10 μM, Co-h 150 μM for 5 minutes
Method: as §1, §2, §3

[4] = test system: MCF-7 cells; assay: Flow cytometric analysis of KR, SYTOX Green and DAPI
Method: MCF-7 cells were seeded at 5×10^5 cells/mL in a 96-well plate (SPL Cell Culture Plate, 96 well (SPL, Cat #30096)), and cultured at 37° C. for 24 hours (overnight). After the culture, the cells were washed with FBS & Phenol red-free media (RPMI), and 100 μL of FBS & Phenol red-free media (RPMI) containing a purified protein (final concentration: 10 μM), followed by reaction at 37° C. for 24 hours (overnight).
After washing with KillerRed: FBS & Phenol red-free media (RPMI), the cells were detached by treating 100 μL of Trypsin EDTA (Gibco™), and then centrifuged at 1,000 rpm for 3 minutes. The cells were filtered through a cell strainer (SPL, cat #93070) and resuspended in 400 μL of 1×DPBS containing 5% FBS.
The cells were washed with SYTOX Green: FBS & Phenol red-free media (RPMI), and 100 μL (final concentration: 150 μM) of FBS & Phenol red-free media (RPMI) containing a Co-h substrate solution was added, followed by incubation for 24 hours at 37° C. 50 μL of SYTOX Green (final concentration: 261 nM) staining DNA of dead cells was added without washing the cells, followed by reaction at 37° C. for 30 minutes. Without washing, the cells were detached by treatment with 100 μL of trypsin EDTA (Gibco™), and centrifuged at 1,000 rpm for 3 minutes. The cells were filtered through a cell strainer (SPL, cat #93070) and resuspended in 400 μL of 1×DPBS containing 5% FBS.
The cells were washed with DAPI: FBS & Phenol red-free media (RPMI), and 100 μL (final concentration: 150 μM) of FBS & Phenol red-free media (RPMI) containing a Co-h substrate solution was added, followed by incubation for 24 hours at 37° C. The cells were washed with FBS & Phenol red-free media (RPMI), and then 100 μL of media (RPMI) was added thereto. 10 μL of DAPI staining DNA of live cells was added, followed by reaction at 37° C. for 30 minutes. The cells were detached by treatment with 100 μL of trypsin EDTA (Gibco™) without washing, followed by centrifugation at 1,000 rpm for 3 minutes. The cells were filtered through a cell strainer (SPL, cat #93070) and resuspended in 400 μL of 1×DPBS containing 5% FBS.

[5] = MCF-7, protein 10 μM, Co-h 150 μM 24 hours

Molecule	cell death with Co-h substrate [1]	cell death with Co-h substrate [2]	cell death with Co-h substrate [3]	number of cells exhibiting fluorescence of KillerRed (FACS) ([4]; MCF-7, protein 10 μM 24 hours)	number of cells exhibiting SYTOX Green (FACS) [4, 5]	number of cells stained with DAPI (FACS) [4, 5]
B1	killed them	killed them	killed them	increased	increased	decreased
B2	none of the six breast cancer cell lines were killed	none of the six breast cancer cell lines were killed	none of the six breast cancer cell lines were killed			increases without a cytotoxic effect
